Measurements from the supplement of paper PMC7877785.
± gives the uncertainty stated by the source.

Experiment: self-splicing fitness, log relative to wild type (ln ratio); higher = more splicing; Tetrahymena group I intron in knt gene, E. coli kanamycin selection, DiMSum; sequences stand for … in CUCUCU…GGAGGGAAAAGUUAUCAGGCAUGCACCUGGUAGCUAGUCUUUAAACCAAUAGAUUGCAUCGGUUUAAAAGGCAAGACCGUCAAAUUGCGGGAAAGGGGUCAACAGCCGUUCAGUACCAAGUCUCAGGGGAAACUUUGAGAUGGCCUUGCAAAGGGUAUGGUAAUAAGCUGACGGACAUGGUCCUAACCACGCAGCCAAGUCCUAAGUCAACAGAUCUUCUGUUGAUAUGGAUGCAGUUCACAGACUAAAUGUCGGUCGGGGAAGAUGUAUUCUUCUCAUAAGAUAUAGUCGGACCUCUCCUUAAUGGGAGCUAGCGGAUGAAGUGAUGCAACACUGGAGCCGCUGGGAACUAAUUUGUAUGCGAAAGUAUAUUGAUUAGUUUUGGAGUACUCGUGGUCG
Summary of the method: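 Six replicate transformations of E. coli BL21(DE3) with a pET-22b(+) library were grown overnight at 37°C or 30°C. The library randomised all eight P1ex-region intron nucleotides, the intron lying in the knt kanamycin-resistance gene, and plates were LB agar with or without 25 μg/mL kanamycin plus 100 μg/mL carbenicillin, 50 μM IPTG and 0.2% rhamnose. Pooled colonies were amplicon-sequenced on an Illumina HiSeq 2500, and fitness is the DiMSum error-weighted combination of wild-type-normalised replicate fold changes, kanamycin versus none.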

Row | Sequence | self-splicing fitness (ln) (30 °C) | self-splicing fitness (ln) (37 °C)
1 | CGCGAGCAAUAUUACGGAGG | -3.29 ± 0.22 | -1.41 ± 0.19
2 | AUGCAGCAAUAUUACGUAGA | -1.71 ± 0.079 | -1.09 ± 0.1
3 | AUUAAGCAAUAUUACGGCGC | -0.47 ± 0.15 | 0.103 ± 0.17
4 | ACACAGCAAUAUUACGGGGA | -2.3 ± 0.077 | -0.729 ± 0.067
5 | ACUGAGCAAUAUUACGCAGG | -3.15 ± 0.23 | -1.14 ± 0.13
6 | GUUUAGCAAUAUUACGGUGA | -1.84 ± 0.2 | -0.461 ± 0.18
7 | UUGGAGCAAUAUUACGCAGA | -2.13 ± 0.33 | -1.13 ± 0.16
8 | AAAUAGCAAUAUUACGAAUA | -1.7 ± 0.16 | -1.18 ± 0.15
9 | UGUUAGCAAUAUUACGGCAA | -0.875 ± 0.15 | -0.17 ± 0.14
10 | UUGCAGCAAUAUUACGGUGA | -1.44 ± 0.14 | 0.0799 ± 0.14
11 | CAACAGCAAUAUUACGGUUU | -0.644 ± 0.045 | 0.183 ± 0.056
12 | AGUCAGCAAUAUUACGAGAA | – | -1.35 ± 0.36
13 | CACGAGCAAUAUUACGUAGG | – | -1.83 ± 0.21
14 | GGAGAGCAAUAUUACGCUCC | – | -1.68 ± 0.45
15 | GACGAGCAAUAUUACGUGAU | -3.53 ± 0.17 | -2.6 ± 0.16
16 | AGAGAGCAAUAUUACGGAUA | -2.48 ± 0.21 | -1.24 ± 0.21
17 | CCGAAGCAAUAUUACGAACC | -3.42 ± 0.48 | –
18 | GUCAAGCAAUAUUACGACUA | -3.5 ± 0.18 | -2.03 ± 0.12
19 | GGAUAGCAAUAUUACGUUAU | -4.06 ± 0.24 | -3.28 ± 0.23
20 | AUAUAGCAAUAUUACGCCUG | -2.24 ± 0.23 | -1.6 ± 0.24
21 | CGCAAGCAAUAUUACGUGAU | -4.09 ± 0.16 | -1.63 ± 0.11
22 | GGUCAGCAAUAUUACGGUCU | -1.28 ± 0.12 | -0.217 ± 0.13
23 | CUUGAGCAAUAUUACGGUAU | -3.17 ± 0.2 | -2.65 ± 0.26
24 | CCGCAGCAAUAUUACGAGGG | -1.99 ± 0.091 | -2.71 ± 0.19
25 | GACGAGCAAUAUUACGGGUA | -3.66 ± 0.2 | -2.94 ± 0.2
26 | GUAUAGCAAUAUUACGAAGA | -3.64 ± 0.47 | -0.936 ± 0.23

Row | Sequence | self-splicing fitness (ln) (30 °C) | self-splicing fitness (ln) (37 °C)
27 | GGCAAGCAAUAUUACGUACU | -0.208 ± 0.072 | 0.344 ± 0.088
28 | CCAAAGCAAUAUUACGGCUU | -4.45 ± 0.21 | -2.32 ± 0.14
29 | ACAGAGCAAUAUUACGGUUG | -3.68 ± 0.24 | -3.02 ± 0.22
30 | GAUAAGCAAUAUUACGUAAU | -1.78 ± 0.073 | -0.923 ± 0.1
31 | UCCGAGCAAUAUUACGGUGA | -0.746 ± 0.076 | -0.0617 ± 0.095
32 | UAUAAGCAAUAUUACGUGGG | -2.83 ± 0.14 | -2.05 ± 0.12
33 | ACUUAGCAAUAUUACGUGCC | -0.96 ± 0.13 | -1.4 ± 0.15
34 | CAGAAGCAAUAUUACGGUUU | -2.93 ± 0.093 | -2.83 ± 0.12
35 | AUUAAGCAAUAUUACGACGC | -0.389 ± 0.11 | 0.175 ± 0.14
36 | CUUUAGCAAUAUUACGGAAC | – | -1.93 ± 0.48
37 | UAAAAGCAAUAUUACGGGGU | -3.96 ± 0.17 | -3.21 ± 0.2
38 | UAAUAGCAAUAUUACGCCCA | -1.36 ± 0.19 | 0.129 ± 0.26
39 | GGAGAGCAAUAUUACGUCGG | -4.62 ± 0.39 | -3.75 ± 0.3
40 | AUCUAGCAAUAUUACGCCAG | -2.77 ± 0.26 | -2.17 ± 0.25
41 | AUCAAGCAAUAUUACGGCAA | -0.819 ± 0.088 | -0.213 ± 0.097
42 | CUAUAGCAAUAUUACGCCUU | – | -2.27 ± 0.39
43 | CGUAAGCAAUAUUACGGGGA | -3.42 ± 0.22 | -1.73 ± 0.14
44 | CCCGAGCAAUAUUACGACCA | – | -1.35 ± 0.31
45 | CUUAAGCAAUAUUACGCGAG | -4.13 ± 0.34 | -3.57 ± 0.33
46 | AGUGAGCAAUAUUACGCGCC | -2.21 ± 0.23 | –
47 | GGAGAGCAAUAUUACGUGAG | -3.33 ± 0.23 | -1.56 ± 0.2
48 | CAAGAGCAAUAUUACGGGGA | -3.21 ± 0.32 | -2.67 ± 0.28
49 | GUUCAGCAAUAUUACGGAGG | -2.38 ± 0.13 | -1.22 ± 0.17
50 | CUUCAGCAAUAUUACGCUAU | -3.33 ± 0.37 | -1.99 ± 0.25
51 | UUUUAGCAAUAUUACGCGCC | -1.71 ± 0.29 | -0.726 ± 0.28
52 | GGAAAGCAAUAUUACGGUAU | -1.82 ± 0.11 | -1.31 ± 0.13

Row | Sequence | self-splicing fitness (ln) (30 °C) | self-splicing fitness (ln) (37 °C)
53 | GCCAAGCAAUAUUACGUAUC | -1.66 ± 0.066 | -0.646 ± 0.082
54 | UAUGAGCAAUAUUACGGCUA | -0.67 ± 0.14 | -1.16 ± 0.16
55 | GGAAAGCAAUAUUACGUGUC | -3.94 ± 0.31 | -1.91 ± 0.19
56 | AUCGAGCAAUAUUACGAAGU | -2.62 ± 0.18 | -1.49 ± 0.18
57 | CUUUAGCAAUAUUACGCGCC | -3.07 ± 0.37 | -2.39 ± 0.45
58 | GCCCAGCAAUAUUACGCAGU | -0.834 ± 0.049 | 0.141 ± 0.056
59 | GAACAGCAAUAUUACGCGCA | -0.367 ± 0.06 | 0.0257 ± 0.081
60 | GCCUAGCAAUAUUACGAUGA | -2.48 ± 0.16 | -1.4 ± 0.14
61 | CGGGAGCAAUAUUACGGUUC | -3.39 ± 0.25 | -1.95 ± 0.35
62 | CACAAGCAAUAUUACGCAUU | -2.9 ± 0.096 | -2.5 ± 0.14
63 | GUAUAGCAAUAUUACGCUCA | – | -0.615 ± 0.36
64 | ACAUAGCAAUAUUACGAGAU | -4.08 ± 0.29 | -2.66 ± 0.26
65 | CCCCAGCAAUAUUACGCAGA | -4.17 ± 0.28 | -3.54 ± 0.21
66 | AGGAAGCAAUAUUACGGGUC | -3 ± 0.32 | -2.31 ± 0.29
67 | CAGCAGCAAUAUUACGCCCU | -1.89 ± 0.1 | 0.0797 ± 0.13
68 | ACUCAGCAAUAUUACGAUCU | -0.0985 ± 0.064 | 0.407 ± 0.08
69 | UCGGAGCAAUAUUACGUAUU | -4.15 ± 0.18 | -2.34 ± 0.15
70 | UCCUAGCAAUAUUACGUCAU | -3.25 ± 0.13 | -3.37 ± 0.23
71 | UAAAAGCAAUAUUACGGGGC | -3.59 ± 0.23 | -2.33 ± 0.25
72 | AUAGAGCAAUAUUACGAACG | -2.4 ± 0.21 | -0.83 ± 0.19
73 | UGCAAGCAAUAUUACGUGCC | -0.791 ± 0.092 | -1.12 ± 0.12
74 | GGAAAGCAAUAUUACGCGAU | -2.98 ± 0.18 | -1.02 ± 0.17
75 | UAGCAGCAAUAUUACGUAGG | -1.62 ± 0.082 | -1.35 ± 0.1
76 | GUUCAGCAAUAUUACGGGAA | -1.16 ± 0.14 | -0.278 ± 0.13
77 | CAAGAGCAAUAUUACGCAAG | -3.06 ± 0.17 | -1.99 ± 0.17
78 | UUGUAGCAAUAUUACGUGAC | -2.34 ± 0.26 | -1.86 ± 0.33
